Measured values taken from article PMC6902690 (The FASEB Journal, 2019).

Target: factor H binding protein variant 1, recombinant (Neisseria meningitidis serogroup B …, UniProt Q9JXV4, strain)
Assay: Gyrolab immunoassay; biotinylated fHbp v1, v2 or v3 as capture reagent (100 µg/ml); Fabs at 10 µg/ml in Rexxip H; detection with goat anti-human IgG Fab fragment specific-Alexa 647 (25 nM); Bioaffy 200 CDs, 3-step method; positive when the fluorescent signal was higher than 10
Settings: both partners purified

B1: huFab 1E6 (recombinant Fab produced in E. coli) (Fab, V domains shown)
VH: EVQLVQSGAEVKKPGSSVKVSCKASGGTVIDYPITWVRQAPGQGLEWVGGFVPLFRTSNYGQKFQGRVTITADKSTSTASMELNSLTSEDTAIYYCARGDTAMGPFDYWGQGTLVTVSS
VL: SYVLTQPPSLSVAPGKTATLTCGGNNIAGKTVHWYQQRPGQAPVLVISYDSDRPSGIPERFSGSNSANTATLTISRVEAGDEADYYCQVWDRNSDHWVFGGGTKLTVL
  binding result: binds
